Paper PMC6864063

These substances were tested against His-SUMO-tagged SH3 domain of c-Src (UniProt P12931) (assay: pull-down; His-SUMO-c-Src-SH3 as bait on Ni2+ beads, cleaved ChoKα constructs as probes; equimolar (1:1, 25 µM); 200 mM KCl, 30 mM imidazole pH 8.5, 25 mM Tris pH 8.5, 10 mM MgCl2; three washes; SDS-PAGE, Coomassie; band intensities by ImageJ).

Chain of Choline kinase alpha Δ49 P(61,62)A (P35790 other isoform, or with tags, fused parts or gaps mutant): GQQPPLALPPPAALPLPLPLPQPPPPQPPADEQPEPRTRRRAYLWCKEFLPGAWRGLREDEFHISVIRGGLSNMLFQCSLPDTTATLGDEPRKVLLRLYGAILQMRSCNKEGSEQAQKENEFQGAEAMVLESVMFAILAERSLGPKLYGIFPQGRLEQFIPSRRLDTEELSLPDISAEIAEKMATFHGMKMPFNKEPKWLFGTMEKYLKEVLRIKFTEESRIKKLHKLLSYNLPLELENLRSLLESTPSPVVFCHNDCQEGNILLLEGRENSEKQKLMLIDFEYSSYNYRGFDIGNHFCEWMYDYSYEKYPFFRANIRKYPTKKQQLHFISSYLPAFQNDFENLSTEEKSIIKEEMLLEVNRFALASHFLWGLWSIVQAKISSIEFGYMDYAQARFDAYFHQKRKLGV
Chain of Choline kinase alpha Δ49 P(59,60)A (P35790 other isoform, or with tags, fused parts or gaps mutant): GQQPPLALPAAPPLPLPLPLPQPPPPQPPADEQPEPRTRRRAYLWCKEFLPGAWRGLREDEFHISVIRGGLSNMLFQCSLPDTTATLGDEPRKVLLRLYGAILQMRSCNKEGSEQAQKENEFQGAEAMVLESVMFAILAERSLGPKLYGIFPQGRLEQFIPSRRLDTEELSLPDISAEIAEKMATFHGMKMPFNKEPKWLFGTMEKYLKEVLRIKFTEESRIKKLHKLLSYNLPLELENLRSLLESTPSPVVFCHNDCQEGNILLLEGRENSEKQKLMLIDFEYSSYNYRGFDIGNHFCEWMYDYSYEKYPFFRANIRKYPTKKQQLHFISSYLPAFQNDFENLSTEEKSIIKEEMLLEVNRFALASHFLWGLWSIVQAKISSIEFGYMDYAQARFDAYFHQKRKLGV
Chain of Choline kinase alpha Δ49 P(72,73)A (P35790 other isoform, or with tags, fused parts or gaps mutant): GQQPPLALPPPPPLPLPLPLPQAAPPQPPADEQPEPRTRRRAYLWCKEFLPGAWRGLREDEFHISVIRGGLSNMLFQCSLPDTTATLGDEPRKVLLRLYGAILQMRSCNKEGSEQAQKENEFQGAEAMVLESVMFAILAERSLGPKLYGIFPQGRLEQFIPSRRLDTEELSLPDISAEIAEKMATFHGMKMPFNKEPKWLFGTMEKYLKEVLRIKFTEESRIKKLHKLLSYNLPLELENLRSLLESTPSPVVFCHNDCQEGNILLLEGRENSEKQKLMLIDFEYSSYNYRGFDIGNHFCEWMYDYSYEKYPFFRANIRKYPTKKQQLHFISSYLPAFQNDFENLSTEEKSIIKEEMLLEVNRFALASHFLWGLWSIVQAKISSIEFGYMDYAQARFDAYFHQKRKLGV
Chain of Choline kinase alpha Δ49, wild type (P35790 50-457, stated change not applied): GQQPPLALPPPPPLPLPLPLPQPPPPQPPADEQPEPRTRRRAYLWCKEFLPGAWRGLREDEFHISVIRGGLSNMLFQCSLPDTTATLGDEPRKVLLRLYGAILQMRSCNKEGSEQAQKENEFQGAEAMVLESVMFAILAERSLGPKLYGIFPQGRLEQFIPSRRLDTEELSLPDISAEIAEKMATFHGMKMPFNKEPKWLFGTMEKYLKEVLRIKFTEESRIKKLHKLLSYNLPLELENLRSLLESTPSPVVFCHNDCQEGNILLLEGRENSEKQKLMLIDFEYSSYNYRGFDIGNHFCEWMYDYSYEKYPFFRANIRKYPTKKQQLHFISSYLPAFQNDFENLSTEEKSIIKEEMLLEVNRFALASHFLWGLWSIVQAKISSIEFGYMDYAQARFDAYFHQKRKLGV

ratio of the ChoKα band intensity to the His-SUMO-cSrcSH3 band intensity	Substance
0.7	Choline kinase alpha Δ49 P(59,60)A (from UniProt P35790 50-457) (domain or fragment)
0.2	Choline kinase alpha Δ49 P(61,62)A (from UniProt P35790 50-457) (domain or fragment)
0.88	Choline kinase alpha Δ49 P(72,73)A (from UniProt P35790 50-457) (domain or fragment)
0.69	Choline kinase alpha Δ49, wild type (from UniProt P35790 50-457) (domain or fragment)
